According to the supplement of paper PMC9170038:

Tested on: K4 kissing-loop RNA reporter
Assay: apparent KD of K4 kissing-loop reporter; higher = weaker reporter binding
Settings: Eterna round: R107
Procedure: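 RNA-MaP round R107: designed RNA switches with theophylline, tryptophan, arginine or FMN aptamers are transcribed on-chip within common flanks. They are titrated with a labelled K4 kissing-loop RNA reporter in RNA-MaP buffer (100 mM Tris pH 7.5, 80 mM KCl, 4 mM MgCl2), without ligand or with the indicated ligand. Median apparent KD per design.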

[1] = input ligand: theophylline 20 uM
[2] = input ligand: tryptophan 2.4 mM
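Also: bound reporter read as fluorescence of individual clusters on recovered sequencing chips by microscopy, with normalized cluster intensities fitted with a binding model.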

Row | Sequence | apparent KD of K4 kissing-loop reporter (input ligand: FMN 200 uM) [µM] | apparent KD of K4 kissing-loop reporter (input ligand: arginine 13.2 mM) [µM] | apparent KD of K4 kissing-loop reporter (input ligand: none) [µM] | apparent KD of K4 kissing-loop reporter [1] [µM] | apparent KD of K4 kissing-loop reporter [2] [µM]
1 | AGGGCUGAGAGCGAUACCAGCGGUAACUGUAUGGUCCAAUAGAGUGAUGUUUUAUAGAGCCGCCCUUGGCAGCGCAAUCUAUUAG [XTheo-B5] | 0.245 | 0.0655 | 0.424 | 0.184 | 0.129
2 | AAACAUUGGUCGGAUACCAGUUAGACCGAUAAGGUCAAAACUGGAGUGAUGUUCCCAAAUAACCCUUGGCAGCCGACCGAUGAAA [MAT - Same State Theophlline B - Mod of Eli - D11] | 0.193 | 0.121 | 0.167 | 0.205 | 0.221
3 | AAUUUAUGAUCUGAUACCAGACUUUAUCUUGUUUAUAAGUCAAGUGAUGUUUGACUAUUAGUCCCUUGGCAGCAGUAUUGUUUAA [#17 K4 Theophylline B Same State] | 0.243 | 0.268 | 0.29 | 0.208 | 0.239
4 | UGACUUGCCUGAGGAUAUCUAGGAUAUCCAUAAAAGGAAAUAAUAGUUCAGUGAUGUUGGAGAAGGAGAGAAGGCAGGUAAGUCU [KL-XFMN-B18 #DoubleAptamer #SwitchBubble] | 0.671 | 0.514 | 0.493 | 0.737 | 0.448
5 | GCUAUGGUAGGAAGGAGCGCUACUUUGUUUUUACGAGUGAUGUUCGGUAGCAGAGUGUUAAAGCAGGUAGGUCGCCUACUAUAGC [Arginine B K4 19] | 0.225 | 0.244 | 0.243 | 0.307 | 0.28
6 | UGUCAUUGGUCUGAUACCAGAAGAAAUCUGGAGUGAUGUUCCAAGUACGACAAAAGUCGCUUCCCUUGGCAGCAGACCGAUGACU [TheoBS 21 #SwitchBubble 13 #StaticStem] | 0.705 | 0.51 | 0.638 | 0.406 | 0.683
7 | CCCAAAAUAUGCAGUGAUGUUGCAACCGAUACCAGUAUCGAAAGAUACCCUUGGCAGCGGAAAACCGCAACGUAAUUUAAAAGGG [Ex Theophylline A K4 16] | 0.204 | 0.177 | 0.147 | 0.212 | 0.147
8 | AACACUCUGGGAGUGAUGUUCUCAAAUAACCGAGGACCGGUACGGCCGCCACUCGGAAAAGAGUGAGUCCUACGAAAAGUAGGAC [Omei inspired 3] | 0.225 | 0.258 | 0.235 | 0.264 | 0.152
9 | GCGAAGAAGGUUGAUACCAGUCUUGCGUGUCAAGCGCCAGUGAUGUUGGGCCUGUAGAUCGACCCUUGGCAGCAACCUCGAAAUG [theeternabot_sameState_KL_Theo_B_28] | 0.836 | 0.563 | 0.844 | 0.748 | 0.655
10 | GGCGGCCGCGCGAAAGCGCGGCCGGCCGAUACCAGCGCGACGGCGCGCCCUUGGCAGCGGCGCCGAGUGAUGUUCGGCCUGCCGU [#2 Same State - Theophylline A Attempt #13 (HarryS)] | 0.126 | 0.122 | 0.117 | 0.145 | 0.116
11 | GCGGUGUUAUGCCCGAGGGUAUAGUUGCCAAAGGAUAUGAUUGUUGUCAGAAGGUUGCGCUUGAUCAGUGAUGUUGGUCUCCAAC [theeternabot_sameState_KL_FMN_A_12] | 0.398 | 0.275 | 0.373 | 0.343 | 0.337
12 | CGAGAAAGAGCGACUGGCGAUCUGUCUGAAGGAGCGGGUGCUAGCCCAGGUAGGUCGCAGACCUUGACGCCAGUGAUGUUGGCGG [Ritiatso] | 0.22 | 0.18 | 0.208 | 0.252 | 0.177
13 | CCUAGUGAUGUUAGGUCGUGCUCCUAUGAUACCAGCGUAGUCACUCGCCCUUGGCAGCAUUCCUUAUAAGGCGGUCGGGCGCGGU [theeternabot_sameState_KL_Theo_A_34] | 0.218 | 0.104 | 0.193 | 0.158 | 0.154
14 | AAUAGGGAUAGUGAUGUUAUCCCUUAUGAUACCAGUGCCAUCGGACACCCUUGGCAGCAUACGGGCAGUGAUGUUGUCCUUGGUG [Exclusion Theophylline A GF 16] | 0.106 | 0.094 | 0.101 | 0.0948 | 0.0938
15 | UAAUUUAUGUCUUUAAUAUAAUUUUCAGAUACCAGUGAUUAUUAACACCCUUGGCAGCUGUAUAGAGUGAUGUUCUUAUGCUUAA [JR_ExcTheophyA_Sub009] | 0.213 | 0.314 | 0.237 | 0.321 | 0.156
16 | UUAGCGACAAGUCAGAUUCUGACAAUUGAUACCAGAUAGAAUUCUAUCCCUUGGCAGCAGUGAUGUUGUUGCAAUAAGUCGCAUU [AK2 Exc Theophylline A] | 0.322 | 0.253 | 0.317 | 0.282 | 0.266
17 | GGAUAGGACAGAGGAUAUGGUAGUGAUGUUACCAACAGCCUACUGUCAAUAAAGACGGUUGGCUGACCAGAAGGCUGUCCUAUCG [Mod of Eli's FmnBX 26 v1] | 0.564 | 0.132 | 0.145 | 0.148 | 0.142
18 | UAAUGCAUGACGGCCGCCACUAGUACUGGAGUGAUGUUGUGGUACGGCGGCAGUAUAGGGUGGACUAGGACCGGGUCAUGCAUAU [KL-XTryp-B11 #analogue] | 0.598 | 0.443 | 0.597 | 0.547 | 0.567
19 | UGGACCUGACUCGAUAAGAGUCAAUGAGAUACCAGUGACGAAAGUCACCCUUGGCAGCUCAACUGCCAGUGAUGUUGGUGGUCCU [#SwitchBubble 2 #StaticStem] | 0.605 | 0.389 | 0.769 | 0.703 | 0.528
20 | ACUGAGCAUGCGGCCGCCACUUCAGAACGUCGCCCAGAGGGCGACGCCUCCGCAGUGAUGUUGUGGAGGACCGGGCAUGUUCAGA [Omei KL Tryp B Exc A v5] | 0.419 | 0.36 | 0.355 | 0.451 | 0.42
21 | GGGAGAAGUGGUGUUGAUUAAGAAGCGGAAGGAGCGCCGAAGAAGGCAGGUAGGUCGCCGAAAUAUAGUGAUGUUAUAUAAAGGG [ExArg.B] | 0.155 | 0.184 | 0.137 | 0.218 | 0.152

Row | Sequence | apparent KD of K4 kissing-loop reporter (input ligand: FMN 200 uM) [µM] | apparent KD of K4 kissing-loop reporter (input ligand: arginine 13.2 mM) [µM] | apparent KD of K4 kissing-loop reporter (input ligand: none) [µM] | apparent KD of K4 kissing-loop reporter [1] [µM] | apparent KD of K4 kissing-loop reporter [2] [µM]
22 | AGACCUCAGUGAUGUUGAGGUAACACUGAUACCAGCGACUUGAUUCGCCCUUGGCAGCAGUCCACCGAGGUAUCUGAUCAGGUCA [#25 K4 Theophylline A Exclusion] | 0.159 | 0.158 | 0.137 | 0.168 | 0.14
23 | UGACAUUGCUCAGAUACCAGUCAUGAGGAUCACCCAUGGGCCAAACGUACAAUAAUAAAUGACCCUUGGCAGCUGAGCAAUGUCU [TheoBX 14] | 0.0645 | 0.0369 | 0.0554 | 0.135 | 0.0628
24 | UGUAUGUGAUUUGAUACCAGACCAGCUGGUGGUAUCUGAGUGAUGUUCAGGUAGGUUUGGGUCCCUUGGCAGCAAAUCGCAUACU [KL-SSTheoB26] | 0.168 | 0.118 | 0.153 | 0.15 | 0.147
25 | AAAUAACAGGCAGGAUAUGCUUAGUAAUAAGGCCAUAUAUACGUAUAGAGUGAUGUUUUGUACAAAGCAGAAGGGCUAAAUCCAU [FMN B Excl V1] | 0.154 | 0.151 | 0.16 | 0.105 | 0.167
26 | UUUAUUAAGACGGCCGCCACUGAUUCAUAGUGAUGUUAUGAUAUAAUUUUAGUGAUAUGCAUUAGCAGGACCGGGUCAAUUAUUA [JR_ExcTryptoB_Sub017] | 0.158 | 0.146 | 0.166 | 0.142 | 0.173
27 | CACUCGGUAUCAGAUACCAGACUAACGAUACCGAGUGUAUCGGGUAGUGAUGUUACCAUAGUCCCUUGGCAGCUGAUAUUCCCUA [Theo B SS t9a] | 0.252 | 0.203 | 0.258 | 0.21 | 0.199
28 | GCAUGUAUGCGAGAGUGAUGUUCAUGGUUUCGAGGACCGGUACGGCCGCCACUCGCGAUCCGGCGUACAAUCGUGAAGUUAUCAU [theeternabot_sameState_KL_Trp_A_42] | 0.736 | 0.469 | 0.655 | 0.542 | 0.672
29 | UUAUUAUUCAGUGAUGUUGAAUUUAUUUCAGAGGAUAUGCAUAAAUGCAGAAGGCUGUAAUACUAUACUUUAAUAAAUUAAAUUU [JR_SSFMNA_Sub018] | 0.242 | 0.25 | 0.248 | 0.262 | 0.203
30 | GGGUCUGUCGGAAGGAGCGCACUAUGGAGUGAUGUUCCAUGACCGCACAGCUUGCGGUCAGUGCAGGUAGGUCGCCGAUAGCUUU [Usquso] | 0.277 | 0.169 | 0.197 | 0.286 | 0.164
31 | AAUGAGGACACUUGCAACAGUCCUCGAAUACGAGGACCGGUACGGCCGCCACUCGAUAACUUGCAGUGAUGUUGCAAGUAAGAAU [(T)''-(K)'-(T)'-(T1)-(T2)-(K1)-(K2)_Design2] | 0.227 | 0.201 | 0.207 | 0.258 | 0.311
32 | CAUGGAGUGAUGCUCCAUGGUCGGGCUUGGCAGGAUAUGGGAUCUUCCAGAAGGGCCGAUCCCGGCGAGUGAUGUUCGCUGGUCU [Exclusion FMN A GF 28] | 0.167 | 0.332 | 0.316 | 0.433 | 0.271
33 | GGAUAUGUAACAGAUACCAGCCGACGACAGUCACUGUGUCAUGUAGUGAUGUUACAAUCUGGCCCUUGGCAGCUGUCUCUGGUUU [theeternabot_exclusion_KL_Theo_B_27] | 0.31 | 0.214 | 0.278 | 0.25 | 0.25
34 | GAAAGAAAGAAUGAUACCAGACACCCGAGUGAUGUUCGGAGCAGAGUGAUGUUCUAAUAAGUCCCUUGGCAGCAUAAAAGAAAAG [Same State Theophylline B GF 1] | 0.24 | 0.256 | 0.322 | 0.331 | 0.246
35 | AAAUUGUUUAGAGGAUAUUCUUUAUUCGACAUAACCUUCUAUAAGGUGCAGUGAUGUUGCAAUAUAGGAGAAGGCUGAGCGAUAA [Exclusion FMN B Gf 14] | 0.311 | 0.177 | 0.217 | 0.196 | 0.178
36 | GUAGGAUGAGGAGGAGGAUGAAUUACUGAAGGAGCGCAGAGAAAUGCAGGUAGGUCGCGGUAAAGAAGUAUAGUGAUGUUAUAUC [#09 K4 Arginine A Same State] | 0.775 | 0.308 | 0.657 | 0.526 | 0.598
37 | UUAGAGAUCUCAGGAUAUCAGUGAUGUUGGUAUCAAGAUCUGAGAUAGAAUUCUAUCUCAGAUCAAUGAGAAGGGAGAUCUCAUU [AK3.3 Exc FMN B] | 0.374 | 0.11 | 0.105 | 0.176 | 0.118
38 | GGUAGCAUGGCGGCCGCCACUGGAGAGUGAUGUUCUCCACUAGGUUACAACGCCGGACAGUCCACCAGGACCGGGCCAUGCUACC | 0.14 | 0.106 | 0.131 | 0.129 | 0.436
39 | AUUAUAAAGUCGGCCGCCACUGAGAGUAGUGAUGUUACUCUAUUCCUUUACAUAUUAUAGUUUAUCAGGACCGGGACAUCAGAUU [JR_ExcTryptoB_Sub018] | 0.268 | 0.214 | 0.279 | 0.246 | 0.199
40 | ACCAUCAAAGAUGGCCAGGACUCAACUGAUACCAGAGUGGAGACACUCCCUUGGCAGCAGGUGAGUGAUGUUCACGAGUCCUGGA [Omel KL Theo A SS B v9] | 1 | 0.801 | 1.14 | 0.599 | 0.74
41 | AUAGAAAAGUGGCACCCUCACUAAAACAGUCGAGGACCGGUACGGCCGCCACUCGCGCGCUUUAGUGAUGUUAAAGCUAGGCGGA | 0.269 | 0.228 | 0.265 | 0.259 | 0.245
42 | CCAUUCUUUUACGAUACCAGUUUAAUAUAUUUAAUCAAAACCCUCGCCGAGUGAUGUUCGGACCCUUGGCAGCGUUUGCGAGAGG [bjnbstkmullin] | 0.455 | 0.291 | 0.582 | 0.533 | 0.397
